{"source": "paper PMC5745072", "test": "Hampton Screens I and II, vapor diffusion", "settings": "glycan lost; control: glycosylated GOx from P. pastoris"}
{"protein": "Glucose oxidase (GOx), mutants A2 and F9: Endo H (protein) parent chain: MQTLLVSSLVVSLAAALPHYIRSNGIEASLLTDPKDVSGRTVDYIIAGGGLTGLTTAARLTENPNISVLVIESGSYESDRGPIIEDLNAYGDIFGSSVDHAYETVELATNNQTALIRSGNGLGGSTLVNGGTWTRPHKAQVDSWETVFGNEGWNWDNVAAYSLQAERARAPNAKQIAAGHYFNASCHGVNGTVHAGPRDTGDDYSPIVKALMSAVEDRGVPTKKDFGCGDPHGVSMFPNTLHEDQVRSDAAREWLLPNYQRPNLQVLTGQYVGKVLLSQNGTTPRAVGVEFGTHKGNTHNVYAKHEVLLAAGSAVSPTILEYSGIGMKSILEPLGIDTVVDLPVGLNLQDQTTATVRSRITSAGAGQGQAAWFATFNETFGDYSEKAHELLNTKLEQWAEEAVARGGFHNTTALLIQYENYRDWIVNHNVAYSELFLDTAGVASFDVWDLLPFTRGYVHILDKDPYLHHFAYDPQYFLNELDLLGQAAATQLARNISNSGAMQTYFAGETIPGDNLAYDADLSAWTEYIPYHFRPNYHGVGTCSMMPKEMGGVVDNAARVYGVQGLRVIDGSIPPTQMSSHVMTVFYAMALKISDAILEDYASMQ", "values": [{"measurement": "other: crystallisability", "result": "increases"}]}
